These results are taken from publication PMC3510032.

Assay [1] has as its target Shep (endogenous, embryo nuclear extract) (Drosophila (endogenous in embryos)) (UniProt Q8MSV2). Kind of assay: co-IP; embryo nuclear extracts in HBSMT, α-Shep or pre-immune serum pre-conjugated to protein A sepharose, 1 h at 4°C; Western blotting. A general note: In western blotting, separated proteins are transferred to a membrane and probed.
The target of assay [2] is GST-Shep isoform E (Drosophila (Oregon R)). Kind of assay: pull-down; 2 µg GST or GST fusion protein immobilised on Glutathione-Agarose, 35 µg soluble His-Mod(mdg4)2.2 in 350 µL PBSMT (137 mM NaCl, 250 mM MgCl2, 0.3% Triton X-100, 1 mM DTT, 100 mg/mL BSA), 4°C, 2 h, 5 washes; bound protein detected by Western blotting.
Assay [3] has as its target GST-Shep isoform B/D (Drosophila (Oregon R)). The assay is described as above.
Assay [4] concerns the target GST-Shep isoform A (Drosophila (Oregon R)). The assay is described as above.
Assay [5] has as its target GST-Shep isoform E (Drosophila (Oregon R)). Kind of assay: pull-down; GST or GST fusion protein immobilised on Glutathione-Agarose, soluble His-Su(Hw) in HBSM (50 mM HEPES pH 6.7, 150 mM NaCl, 5 mM KCl, 2.5 mM MgCl2) with 0.3% Triton-X 100, 0.2 M KCl, 1 mM DTT, 100 mg/mL BSA, 4°C, 2 h; bound protein detected by Western blotting.
The target of assay [6] is GST-Shep isoform B/D (Drosophila (Oregon R)). The assay is described as above.
The target of assay [7] is GST-Shep isoform A (Drosophila (Oregon R)). Described as above.

With “Mod(mdg4)2.2 (endogenous, embryo nuclear extract) (natural protein)”, in assay [1], the percent of total recovered in the IP was 0.1%.

With His-Mod(mdg4)2.2 (natural protein), the stoichiometry N in assay [2], in assay [3] and in assay [4] was 1 molar ratio throughout.

B1: His-Su(Hw) (natural protein)
chain: MSASKEGKEKKGKLLGVENISPPKDKRPATRMKLLNDVGAGEDSEASTTTTTSRTPSNKQEKRGSVAGSRIKILNEEILGTPKTEKRGATKSTAPAASTVKILNEKKTPSATVTAVETTKIKTSPSKRKKMEHYVLQAVKSENTKADTTVTVVTEEDDTIDFILADDEEVVPGRIENNNGQEIVVTEDDEDLGEDGDEDGEDSSGKGNSSQTKIKEIVEHVCGKCYKTFRRVQSLKKHLEFCRYDSGYHLRKADMLKNLEKIEKDAVVMEKKDICFCCSESYDTFHLGHINCPDCPKSFKTQTSYERHIFITHSEFSDFPCSICNANLRSEALLALHEEQHKSRGKPYACKICGKDFTRSYHLKRHQKYSSCSSNETDTMSCKVCDRVFYRLDNLRSHLKQHLGTQVVKKPEYMCHTCKNCFYSLSTLNIHIRTHTGEKPFDCDLCDKKFSALVALKKHRRYHTGEKPYSCTVCNQAFAVKEVLNRHMKRHTGERPHKCDECGKSFIQATQLRTHSKTHIRPFPCEQCDEKFKTEKQLERHVKTHSRTKRPVFSCAECKRNFRTPALLKEHMDEGKHSPKQQRSSMRSAVKIMERTDCAICDKNFDSSDTLRRHIRTVHECDPDDIFGVEPHPSKRAKKDIESEEVVPVALNTSAGSLISSQTDGNGVVVREFLVDEGDGAAQTITLENETYTILPLDGAIEGEQLTDEAGVKPEAKKEEAQVSPVVKKEQRKSLAASLAAAIADNLEESCSEDDFSGEILTEEDIKLKENVGKLIDMLVDPPILKKYGWPNAPEETVLCKVIENCGHDLTKGGENYAELDYGSRMREYCKLLFTVVIHNDSIKSLLNNFPIDDVIEYVLGDEDQDEGGLDKDNESHSGDEEAVSVTGETKTNEIREKPEKKEVSAKSEKKEIVGKAVDKDNSEEVVRENKKKPVGEQEKA
On to B1, for which the stoichiometry N in assay [5], in assay [6] and in assay [7] was 1 molar ratio throughout.

One may read the stoichiometry N as a count of units in the complex or per binding partner.
